The values that follow come from patent US12233115B2, “Long-acting parathyroid hormone” (Extend Biosciences, Inc., priority 2022, dated 2025).

Molecules are shown by their SMILES. Marks after values point to notes of the source that are not given here.

The target in series [1] is T1, vitamin D binding protein (DBP) (Homo sapiens, UniProt P02774).
T1 construct: purchased Athens Research and Technology 16-16-070307
T1 sequence (P02774 17-474): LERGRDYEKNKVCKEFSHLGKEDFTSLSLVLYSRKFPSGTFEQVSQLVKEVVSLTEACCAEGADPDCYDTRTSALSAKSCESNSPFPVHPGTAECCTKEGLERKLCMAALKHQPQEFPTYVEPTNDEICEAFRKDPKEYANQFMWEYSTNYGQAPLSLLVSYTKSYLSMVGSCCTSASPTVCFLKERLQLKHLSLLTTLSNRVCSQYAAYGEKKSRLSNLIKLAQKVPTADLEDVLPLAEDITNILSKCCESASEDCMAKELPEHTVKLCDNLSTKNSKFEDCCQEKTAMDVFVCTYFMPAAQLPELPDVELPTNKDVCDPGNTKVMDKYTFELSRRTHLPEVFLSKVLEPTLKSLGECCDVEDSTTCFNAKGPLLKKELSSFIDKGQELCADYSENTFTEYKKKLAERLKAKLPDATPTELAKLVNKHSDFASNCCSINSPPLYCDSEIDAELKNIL
In words: Bio-layer interferometry binding of DBP to immobilized biotinylated conjugate. The following applies: BLI steady state fit, DBP 0-75 μM; read-out: KD (binding equilibrium constant). Here is the method: EXT607 and EXT608 were biotinylated using the EZ-Link Sulfo-NHS Biotin No-Weigh kit (Thermo Fisher Scientific, Waltham, MA, Catalog No. PIA39256). One mmol of biotin was reacted with 1 mmol of conjugate for 1 hour at room temperature. Unbound biotin was separated from biotinylated conjugate with a PD-10 desalting column (GE Lifesciences/Cytiva, Marlborough, MA, Catalog No. 17085101). The biotinylation ratio was quantitated using the Pierce Biotin Quantitation Kit (Thermo Fisher Scientific, Waltham, MA, Catalog No. PI28005). DBP was purchased from Athens Research and Technology (Athens, GA, Catalog No. 16-16-070307).
Affinity measurements were collected on the Octet Red96 using prehydrated Dip and Read Streptavidin (SA) Biosensors (ForteBio, Fremont, CA, Catalog No. 18-5021). Reagents were diluted into phosphate buffered saline (PBS) with 0.02% Tween 20 in a black 96-well plate. Biotinylated EXT607 or EXT608 were prepared at a biotin concentration of 50 μg/mL and loaded onto the SA tips for 2 minutes. A buffer-only negative loading control was used to measure non-specific binding of DBP to the SA biosensors. A titration of DBP ranging from 0 to 75 μM was prepared. DBP was associated to the loaded tips for 5 minutes and dissociated with buffer solution for 10 minutes.
For orientation: In BLI a coated tip is dipped into the sample, and binding shifts an interference pattern.

Series [2] is described as follows: Single dose pharmacokinetics of EXT608 in healthy humans. The series is classed as in vivo. The following applies: human. On the procedure:
EXT608 vastly improves the serum half-life in humans in a dose-dependent manner. Sterile EXT608 formulations were prepared at a concentration of 0.4 mg/ml in 10 mM sodium acetate buffer pH=5.5, 4.5% mannitol, and 0.25% Polysorbate 80 and filled into sterile vials. Healthy human participants were administered EXT608 by subcutaneous injection in the abdomen at doses of 0, 36, 108, 216, or 324 micrograms (n=3).
Pharmacokinetics: 4 ml Blood samples were collected at −24, −1, 0.5, 1, 2, 4, 8, 12, 18, 24, 36, 48, and 72 hours relative to dosing as well as on Days 5, 7, 14, 21, and 28 after dosing. They were processed to K2EDTA plasma. […] Pharmacokinetic parameters were calculated for each individual using Kinetica software (ThermoFisher Scientific, Waltham, MA), and the parameter means and standard deviations are given in Table 12. For the lower doses (36, 108, and 216 μg), an accurate elimination half-life (t1/2) could not be determined because of limited timepoints with EXT608 concentrations above the lower limit of quantitation.

[3] abbreviates: in vivo, 36 ug, single 36 μg SC.
[4] abbreviates: in vivo, 108 ug, single 108 μg SC.
Where [5] appears, read: in vivo, 216 ug, single 216 μg SC.
Setting [6] is: in vivo, 324 ug, single 324 μg SC.

Regarding `C=C1CC[C@H](OCCCNC(=O)CCOCCOCCOCCOCCOCCOCCOCCOCCOCCOCCOCCOCCOCCOCCOCCOCCOCCOCCOCCOCCOCCOCCOCCOCCOCCOCCOCCOCCOCCOCCOCCOCCOCCOCCOCCOCCNC(=O)CCN2C(=O)CC(SC[C@H](NC(=O)[C@H](Cc3ccccc3)NC(=O)[C@H](CC(N)=O)NC(=O)[C@H](Cc3c[nH]cn3)NC(=O)[C@@H](NC(=O)[C@H](CC(=O)O)NC(=O)[C@H](CCC(N)=O)NC(=O)[C@H](CC(C)C)NC(=O)[C@H](CCCCN)NC(=O)[C@H](CCCCN)NC(=O)[C@H](CCCNC(=N)N)NC(=O)[C@H](CC(C)C)NC(=O)[C@H](Cc3c[nH]c4ccccc34)NC(=O)[C@H](CCC(=O)O)NC(=O)[C@@H](NC(=O)[C@H](CCCNC(=N)N)NC(=O)[C@H](CCC(=O)O)NC(=O)[C@H](CCSC)NC(=O)[C@H](CO)NC(=O)[C@H](CC(N)=O)NC(=O)[C@H](CC(C)C)NC(=O)[C@H](Cc3c[nH]cn3)NC(=O)[C@H](CCCCN)NC(=O)CNC(=O)[C@H](CC(C)C)NC(=O)[C@H](CC(N)=O)NC(=O)[C@H](Cc3c[nH]cn3)NC(=O)[C@H](CCSC)NC(=O)[C@H](CC(C)C)NC(=O)[C@H](CCC(N)=O)NC(=O)[C@@H](NC(=O)[C@H](CCC(=O)O)NC(=O)[C@H](CO)NC(=O)[C@@H](NC(=O)[C@@H](N)CO)C(C)C)[C@@H](C)CC)C(C)C)C(C)C)C(N)=O)C2=O)C/C1=C/C=C1\CCC[C@]2(C)[C@@H]([C@H](C)CCCC(C)(C)O)CC[C@@H]12` (stereo partly shown) [EXT608], the equilibrium dissociation constant (Kd) – broadly, the equilibrium constant for the complex coming apart – in series [1] was found to be 5.2 µM. Moreover, the tlast in series [2] (single 36 μg SC) was 24 h; in series [2] (single 108 μg SC, 48 h (n = 1) or 72 h (n = 2)) it was 48/72^a; in series [2] (single 216 μg SC), 48/72/120; in series [2] (single 324 μg SC), 168 h. In addition, the AUC(0-t) (as a rule, the area under the concentration-time curve up to a stated or last time point) came to 5.9 ± 2.7 ng·h/mL in series [2] (setting [3]), 29.2 ± 8.4 ng·h/mL in series [2] (setting [4]), 41.7 ± 17.4 ng·h/mL in series [2] (setting [5]) and 118 ± 11 ng·h/mL in series [2] (setting [6]). Also, the Cmax (usually the highest concentration seen after dosing) is 0.49 ± 0.27 ng/mL in series [2] (setting [3]), 1.2 ± 0.3 ng/mL in series [2] (setting [4]), 1.3 ± 0.5 ng/mL in series [2] (setting [5]) and 5 ± 2 ng/mL in series [2] (setting [6]). In addition, the Tmax (commonly the time at which the peak concentration occurs) worked out at 3.3 ± 1.2 h in series [2] (setting [3]), 5.3 ± 2.3 h in series [2] (setting [4]), 4 h in series [2] (setting [5]) and 2.7 ± 1.2 h in series [2] (setting [6]). The AUC(0-inf) (as a rule, the area under the concentration-time curve extrapolated to infinity) in series [2] (setting [6]) turned out to be 151 ± 16 ng·h/mL. The MRT (usually the average time that molecules of a dose stay in the body) in series [2] (setting [6]) came out at 105 ± 18 h. Further, the half-life (in general, the time needed for the level to fall by half in the phase considered) in series [2] (setting [6]) is 90 ± 13 h. Also, the Vd/F in series [2] (in vivo, 324 ug, single 324 μg SC, read-out: VZ/F) came to 280 ± 42 L. Moreover, in series [2] (plasma, 324 ug, single 324 μg SC), the apparent clearance CL/F (commonly the apparent clearance, not corrected for the fraction that reaches the circulation) is 36.7 mL/min.
